# Source: doi:10.1101/621219 (bioRxiv, 2019)
# Values joined by “and” are separate entries in the source; they are usually repeats but may differ in a detail not shown here. Identical values can stand only once. Like-named read-outs stand apart in the source and are kept apart here.
# Columns and labels:
# [1] = target: T1, FoxA, TonB-dependent ferrioxamine B transporter from Pseudomonas aeruginosa PAO1 (full-length) (Pseudomonas aeruginosa strain PAO1, UniProt Q9I116 1-820); assay: ITC
# T1 sequence (looked up): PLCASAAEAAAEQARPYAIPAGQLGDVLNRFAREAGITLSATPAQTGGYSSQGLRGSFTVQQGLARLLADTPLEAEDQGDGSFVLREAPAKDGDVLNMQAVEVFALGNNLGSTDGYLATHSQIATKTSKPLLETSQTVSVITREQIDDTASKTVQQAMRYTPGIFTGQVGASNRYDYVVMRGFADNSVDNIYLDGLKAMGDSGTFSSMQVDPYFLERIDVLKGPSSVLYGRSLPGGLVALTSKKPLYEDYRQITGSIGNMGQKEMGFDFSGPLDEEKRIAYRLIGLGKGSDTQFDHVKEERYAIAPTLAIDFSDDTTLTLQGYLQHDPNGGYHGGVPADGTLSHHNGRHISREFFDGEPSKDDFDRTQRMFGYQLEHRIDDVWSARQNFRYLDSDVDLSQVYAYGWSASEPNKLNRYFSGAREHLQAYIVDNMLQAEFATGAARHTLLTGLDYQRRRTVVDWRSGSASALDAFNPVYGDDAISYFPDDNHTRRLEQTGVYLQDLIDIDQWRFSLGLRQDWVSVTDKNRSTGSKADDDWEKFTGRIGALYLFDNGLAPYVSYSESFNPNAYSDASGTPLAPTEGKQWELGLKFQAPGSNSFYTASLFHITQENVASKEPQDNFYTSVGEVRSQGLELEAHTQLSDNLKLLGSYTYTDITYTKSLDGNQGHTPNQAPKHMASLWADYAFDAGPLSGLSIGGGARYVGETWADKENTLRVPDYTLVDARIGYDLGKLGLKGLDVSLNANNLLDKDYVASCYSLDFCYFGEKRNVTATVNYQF
# [2] = target: T1, FoxA, TonB-dependent ferrioxamine B …; assay: ITC; remark: listed apart in the source
binder,measurement,setting,value
"C-terminal domain of TonB1 from Pseudomonas aeruginosa PAO1 (residues 251-340) (domain or fragment, Pseudomonas aeruginosa strain PAO1, UniProt Q51368 251-340, looked up) DSDIKPLRMDPPVYPRMAQARGIEGRVKVLFTITSDGRIDDIQVLESVPSRMFDREVRQAMAKWRFEPRVSGGKIVARQATKMFFFKIEK",Kd,[1],107 ± 30 nM
same,dH,[1],-11 ± 0.3 kcal/mol
same,Kd,[2],6 nM and 6 to 10 nM
same,dH,[2],-19.2 ± 0.4 kcal/mol
